Values joined by “and” are separate entries in the source; they are usually repeats but may differ in a detail not shown here. Identical values can stand only once.
Experiments:
[1] = test system: preterm infants born before week 32 of gestational age; conditions: in vivo
Source text: (§1) The adverse event (AE) reporting period in each study began upon administration of the first dose (Day 1) of investigational medication and ended at the Follow-up Visit (1 week±3 days after the last dose of study drug intake). All AEs that occurred in a patient during the adverse event reporting period were to be reported, whether or not the event was considered medication/product related. In addition, any known untoward event that occurred subsequent to the AE reporting period that the investigator assessed as possibly, probably, or definitely related to the investigational product were also to be reported as an AE.
(§2) MedDRA dictionary version 10.0 was used to classify all AEs reported during either study by system organ class (SOC) and preferred term (PT). All summary tables included counts of patients with treatment-emergent adverse events (TEAEs). The assessment of TEAEs was made in each individual study. […] All TEAEs, treatment related TEAEs (definite, probable, and possible), SAEs, and TEAEs leading to withdrawal of study drug were summarized by MedDRA SOC, PT, and treatment. Both the incidence (proportion of patients) and number of each TEAE were summarized. Additionally, TEAEs were summarized by maximum severity (mild, moderate, or severe). An overall summary of TEAEs was presented by treatment sequence and total and presented the number (%) of patients with TEAEs for each treatment sequence allocated to (1) BSSL only; (2) Placebo only; (3) Both BSSL and placebo; and (4) Neither Treatment.

[2] = test system: preterm infants born before week 32 of gestational age; assay: Treatment-emergent adverse events, studies BVT.BSSL-020/-021
Source text: as §1, §2

[3] = test system: preterm infants born before week 32 of gestational age; assay: Growth velocity (body weight) in phase II crossover studies BVT.BSSL-020/-021; format: in vivo, human; conditions: for Growth velocity, LS Mean / Growth velocity, LS Mean Difference (rhBSSL − Placebo) / Growth velocity, Maximum / Growth velocity, Mean (SD) / Growth velocity, Median / Growth velocity, Minimum: 7 days
Method: Patients were randomized to infant formula/pasteurized breast milk supplemented with rhBSSL at a final concentration of 0.15 g/L, or to infant formula/pasteurized breast milk “supplemented” with sterile water for injection (as placebo) for the first 7 days. After a washout period of 2 days, the patient was “crossed over” to the other treatment regimen during a second 7-day treatment period. Collection of feces samples for CFA assessment were performed during the last 3 days (72 hours) of each treatment period.
The patient's weight in grams was recorded each day using a scale with an accuracy of at least +/−5 grams and entered on the CRF. To the extent possible, body weight was measured at approximately the same time each day.
• Growth velocity (g/kg/day): Growth velocity was defined as, for the first period, (the weight at the last assessment in the first period minus the weight at Day 1) divided by [the weight at Day 1 and (the day of the last assessment in the first period minus 1)], and for the second period, (the weight at the last assessment in the second period minus the weight at Day 10) divided by [the weight at Day 10 and (the day of the last assessment in the second period minus 10)]. The Secondary Efficacy Variables were: • CFA measured in food and feces samples collected between the tracer markers during the final 3 days (72 hours) of each treatment period. • CFA was calculated as [Fat (g/period) in food—Fat (g/period) in stool]/[Fat (g/period) in food)]*100. • Fat in food was calculated as ([Food (mL)−Vomit (mL)]*[Fat Content in Food (g/100 mL)]/100. This formula was based on the following assumptions: (a) fat content in vomit is the same as the fat content in food; (b) density of vomit is the same as density of food. • Fat content of food (formula or pasteurized breast milk) was determined using the same method as for the stool analysis and was performed by the same lab. Food (mL) and Vomit (mL) were calculated as the total amount of food or vomit recorded on or after the first tracer ingestion and prior to the second tracer ingestion. Vomit was recorded in grams on the CRF. Therefore, Vomit (mL) was calculated as Vomit (g)/Density. • There was one difference in the calculation of fat (g/period) in stool and fat content in food (g/100 mL) between the two studies. That difference relates to different contents of fatty acids in milk and formula, as described below: […]
The primary efficacy outcome, growth velocity, was analyzed by an analysis of variance (ANOVA) with treatment, regimen (pasteurized breast milk or infant formula), period, sequence, and patient nested within regimen and sequence as factors. All main effects were tested against the residual mean square from the ANOVA model.

[4] = Safety Analysis Set, rhBSSL N = 61
[5] = TEAE, Safety Analysis Set, rhBSSL N = 61
[6] = BVT.BSSL-020 (infant formula), FAS, 0.15 g/L
[7] = BVT.BSSL-020 (infant formula), PP, 0.15 g/L
[8] = BVT.BSSL-021 (pasteurized breast milk), FAS, 0.15 g/L
[9] = BVT.BSSL-021 (pasteurized breast milk), PP, 0.15 g/L
[10] = combined studies 020+021, FAS, 0.15 g/L in feed
[11] = combined studies 020+021, PP, 0.15 g/L in feed

B1: rhBSSL: recombinant human bile-salt-stimulated lipase, SEQ ID. NO. 1, expressed from recombinant CHO cells; used in both clinical trials (protein, listed as Homo sapiens)
chain: AKLGAVYTEGGFVEGVNKKLGLLGDSVDIFKGIPFAAPTKALENPQPHPGWQGTLKAKNFKKRCLQATITQDSTYGDEDCLYLNIWVPQGRKQVSRDLPVMIWIYGGAFLMGSGHGANFLNNYLYDGEEIATRGNVIVVTFNYRVGPLGFLSTGDANLPGNYGLRDQHMAIAWVKRNIAAFGGDPNNITLFGESAGGASVSLQTLSPYNKGLIRRAISQSGVALSPWVIQKNPLFWAKKVAEKVGCPVGDAARMAQCLKVTDPRALTLAYKVPLAGLEYPMLHYVGFVPVIDGDFIPADPINLYANAADIDYIAGTNNMDGHIFASIDMPAINKGNKKVTEEDFYKLVSEFTITKGLRGAKTTFDVYTESWAQDPSQENKKKTVVDFETDVLFLVPTEIALAQHRANAKSAKTYAYLFSHPSRMPVYPKWVGADHADDIQYVFGKPFATPTGYRPQDRTVSKAMIAYWTNFAKTGDPNMGDSAVPTHWEPYTTENSGYLEITKKMGSSSMKRSLRTNFLRYWTLTYLALPTVTDQEATPVPPTGDSEATPVPPTGDSETAPVPPTGDSGAPPVPPTGDSGAPPVPPTGDSGAPPVPPTGDSGAPPVPPTGDSGAPPVPPTGDSGAPPVPPTGDSGAPPVPPTGDAGPPPVPPTGDSGAPPVPPTGDSGAPPVTPTGDSETAPVPPTGDSGAPPVPPTGDSEAAPVPPTDDSKEAQMPAVIRF
- Urinary tract infection, n (%) of Patients [1]: 1 (1.6%)
- Patients who died, n (%) of Patients [2, 4]: 0
- Patients with any TEAE, n (%) of Patients [2, 4]: 29 (47.5%)
- Patients with any serious TEAE, n (%) of Patients [2, 4]: 0
- Patients with any severe TEAE, n (%) of Patients [2, 4]: 1 (1.6%)
- Anemia neonatal, n (%) of Patients [2, 5]: 2 (3.3%)
- Anemia, n (%) of Patients [2, 5]: 3 (4.9%)
- Bradycardia, n (%) of Patients [2, 5]: 1 (1.6%)
- Cardiac murmur, n (%) of Patients [2, 5]: 4 (6.6%)
- Dermatitis diaper, n (%) of Patients [2, 5]: 13 (21.3%)
- Hypokalemia, n (%) of Patients [2, 5]: 3 (4.9%)
- Thrombocythemia, n (%) of Patients [2, 5]: 0
- Tolerability when added to infant formula or pasteurized breast milk ([2]; preterm infants, combined analysis): well tolerated
- Growth velocity, LS Mean [3, 6]: 18.05 g/kg/day
- Growth velocity, LS Mean Difference (rhBSSL − Placebo) [3, 6]: 3.74 g/kg/day
- Growth velocity, Maximum [3, 6]: 25.5 g/kg/day
- Growth velocity, Mean (SD) [3, 6]: 18.06 g/kg/day and 18.06 (3.964) g/kg/day
- Growth velocity, Median [3, 6]: 18.39 g/kg/day
- Growth velocity, Minimum [3, 6]: 9.2 g/kg/day
- Growth velocity, LS Mean [3, 7]: 17.75 g/kg/day
- Growth velocity, LS Mean Difference (rhBSSL − Placebo) [3, 7]: 2.30 g/kg/day
- Growth velocity, Maximum [3, 7]: 24.0 g/kg/day
- Growth velocity, Mean (SD) [3, 7]: 17.79 (4.013) g/kg/day
- Growth velocity, Median [3, 7]: 17.98 g/kg/day
- Growth velocity, Minimum [3, 7]: 9.2 g/kg/day
- Growth velocity, LS Mean [3, 8]: 15.58 g/kg/day
- Growth velocity, LS Mean Difference (rhBSSL − Placebo) [3, 8]: 1.95 g/kg/day
- Growth velocity, Maximum [3, 8]: 26.5 g/kg/day
- Growth velocity, Mean (SD) [3, 8]: 15.54 g/kg/day and 15.54 (4.880) g/kg/day
- Growth velocity, Median [3, 8]: 15.95 g/kg/day
- Growth velocity, Minimum [3, 8]: 7.5 g/kg/day
- Growth velocity, LS Mean [3, 9]: 16.47 g/kg/day
- Growth velocity, LS Mean Difference (rhBSSL − Placebo) [3, 9]: 1.71 g/kg/day
- Growth velocity, Maximum [3, 9]: 26.5 g/kg/day
- Growth velocity, Mean (SD) [3, 9]: 16.16 (4.856) g/kg/day
- Growth velocity, Median [3, 9]: 16.80 g/kg/day
- Growth velocity, Minimum [3, 9]: 8.3 g/kg/day
- Growth velocity, LS Mean [3, 10]: 16.86 g/kg/day
- Growth velocity, LS Mean Difference (rhBSSL − Placebo) [3, 10]: 2.93 g/kg/day
- Growth velocity, Maximum [3, 10]: 26.5 g/kg/day
- Growth velocity, Mean (SD) [3, 10]: 16.92 (4.540) g/kg/day
- Growth velocity, Median [3, 10]: 16.84 g/kg/day
- Growth velocity, Minimum [3, 10]: 7.5 g/kg/day
- Growth velocity, LS Mean [3, 11]: 17.15 g/kg/day
- Growth velocity, LS Mean Difference (rhBSSL − Placebo) [3, 11]: 2.08 g/kg/day
- Growth velocity, Maximum [3, 11]: 26.5 g/kg/day
- Growth velocity, Mean (SD) [3, 11]: 17.08 (4.424) g/kg/day
- Growth velocity, Median [3, 11]: 16.84 g/kg/day
- Growth velocity, Minimum [3, 11]: 8.3 g/kg/day
- Relative increase of growth velocity compared to the LS mean for placebo ([3]; combined studies, PP): 13.8%
- Relative increase of growth velocity compared to the LS mean for placebo ([3]; formula-fed infants (BVT.BSSL-020), PP): 14.9%
